Laboratory results from the supplement of paper PMC10126150.
± gives the standard deviation of the averaged measurements.

The sequences below were run on ATP (assay: switch fluorescence ratio, 500 uM ATP over buffer (Cy3 cluster intensity, sum of 5 cycles each) (fold (ratio)); higher = stronger signal-on switching upon ATP binding; sequences stand for … in TCGTCGGCAGCGTCAGATGTGTATAAGAGACAGTTTTTTTTTTTTTTTTTTTTTTTTT…TC). Settings: aptamer strand: ATP DNA aptamer (quencher-CACCTGGGGGAGTATTGCGGAGGAAGG + anchor), 100 nM annealed; ATP concentration: 500 uM.
In short: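 The quencher-labelled ATP aptamer, at 100 nM, was annealed to Cy3-labelled switching-strand clusters on a modified Illumina MiSeq flow-cell. The clusters were imaged in selection buffer, then after 15 min with 500 uM ATP at 22 °C, and this buffer/ATP cycle ran five times with NaOH stripping and re-annealing between runs. Per-cluster fluorescence ratios, summed target-cycle over summed buffer-cycle Cy3 intensity, were averaged per switch-domain sequence. Clusters outside 100-1000 RFU were excluded.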
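Further: ATP exposure 15 min at 22 °C before imaging.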

| Sequence | switch fluorescence ratio |
| --- | --- |
| AGCATACAAA | 0.98 ± 0.012 |
| AGCATAGTCG | 1.04 ± 0.029 |
| AGCATCATTT | 0.971 ± 0.024 |
| AGCATGTGGT | 1 ± 0.026 |
| AGCATTAATT | 0.988 ± 0.043 |
| AGCATTACGT | 2.02 ± 0.089 |
| AGCATTGTGG | 0.996 ± 0.018 |
| AGCATTTTTC | 1.02 ± 0.028 |
| AGCCAGGGGG | 1.03 ± 0.043 |
| AGCCCTGGCG | 0.9504 ± 0.0071 |
| AGCCGAGTGC | 1.02 ± 0.06 |
| AGCCGGGGGA | 1.05 ± 0.071 |
| AGCCTCCGGT | 1.13 ± 0.073 |
| AGCCTTTGTC | 0.982 ± 0.041 |
| AGCGAAATCT | 1.08 ± 0.03 |
| AGCGAACGGG | 1.05 ± 0.025 |
| AGCGACCCGG | 1.08 ± 0.033 |
| AGCGAGGTCT | 0.977 ± 0.027 |
| AGCGCTTATG | 1 ± 0.022 |
| AGCGGATCGG | 0.991 ± 0.02 |
| AGCGGGGATA | 1.05 ± 0.024 |
| AGCGGGGGGG | 1.02 ± 0.036 |
| AGCGGGTTTC | 1.02 ± 0.015 |
| AGCGTAGTGG | 1.027 ± 0.0061 |
| AGCGTATGCA | 1.02 ± 0.024 |

| Sequence | switch fluorescence ratio |
| --- | --- |
| AGCGTGATAC | 4.4 ± 0.36 |
| AGCGTTGAAG | 0.997 ± 0.022 |
| AGCGTTGAGT | 0.985 ± 0.032 |
| AGCTAATTCG | 1.03 ± 0.045 |
| AGCTAGCAG | 1.042 ± 0.0036 |
| AGCTAGCAGG | 0.974 ± 0.039 |
| AGCTAGGGGA | 1.08 ± 0.077 |
| AGCTAGTATG | 0.993 ± 0.016 |
| AGCTATGCGC | 0.963 ± 0.056 |
| AGCTATGTTT | 0.979 ± 0.04 |
| AGCTATTGGG | 0.975 ± 0.045 |
| AGCTCATCGC | 1.05 ± 0.023 |
| AGCTCCTCAT | 1.1 ± 0.03 |
| AGCTCGACGC | 1.19 ± 0.064 |
| AGCTCGGGTA | 0.998 ± 0.025 |
| AGCTCTGCTA | 1.02 ± 0.02 |
| AGCTGAAGCC | 1.03 ± 0.028 |
| AGCTGAAGTG | 0.972 ± 0.018 |
| AGCTGACAGT | 0.981 ± 0.0044 |
| AGCTGAGGGA | 1.015 ± 0.0066 |
| AGCTGATGGG | 1.01 ± 0.014 |
| AGCTGCTACG | 0.996 ± 0.027 |
| AGCTGGATGC | 1.04 ± 0.036 |
| AGCTGGCAGC | 1.009 ± 0.0012 |
| AGCTGGCTAA | 0.967 ± 0.014 |

| Sequence | switch fluorescence ratio |
| --- | --- |
| AGCTGTAGTT | 1 ± 0.034 |
| AGCTTACTGT | 1.08 ± 0.019 |
| AGCTTATGTC | 0.935 ± 0.057 |
| AGCTTCGGAC | 1.35 ± 0.12 |
| AGCTTCGTTC | 1.014 ± 0.0052 |
| AGCTTTAGTT | 1.008 ± 0.0019 |
| AGCTTTGGGT | 1.01 ± 0.016 |
| AGGAAAAAAA | 2.85 ± 2.6 |
| AGGAACATTA | 1.01 ± 0.054 |
| AGGAAGAGGC | 1.08 ± 0.18 |
| AGGAAGCAGT | 1.018 ± 0.0085 |
| AGGAAGCTCT | 1.03 ± 0.023 |
| AGGAAGGCA | 0.975 ± 0.05 |
| AGGAATAAA | 0.976 ± 0.052 |
| AGGAATATAC | 1.11 ± 0.066 |
| AGGAATCCGT | 1.03 ± 0.022 |
| AGGAATGGCT | 0.985 ± 0.017 |
| AGGAATGTTA | 1.03 ± 0.018 |
| AGGAATTGGA | 1.01 ± 0.1 |
| AGGAATTTTT | 0.968 ± 0.018 |
| AGGACAGCAT | 1.07 ± 0.023 |
| AGGACGGCCA | 0.998 ± 0.021 |
| AGGACGGGGG | 1.02 ± 0.033 |
| AGGACTTGAA | 1.02 ± 0.035 |
| AGGAGAAAAT | 1.04 ± 0.028 |

| Sequence | switch fluorescence ratio |
| --- | --- |
| AGGAGACGAA | 0.985 ± 0.031 |
| AGGAGAGGTG | 1.102 ± 0.002 |
| AGGAGATGGG | 1.02 ± 0.034 |
| AGGAGGAAGG | 1.05 ± 0.086 |
| AGGAGGACGT | 0.964 ± 0.06 |
| AGGAGGGCGT | 0.969 ± 0.018 |
| AGGAGGGTAG | 1 ± 0.021 |
| AGGAGGGTGG | 1.02 ± 0.044 |
| AGGAGGTATG | 0.976 ± 0.027 |
| AGGAGGTGGT | 1.04 ± 0.015 |
| AGGAGGTTCC | 1.02 ± 0.061 |
| AGGAGTATGA | 1.03 ± 0.029 |
| AGGAGTCTAT | 0.9774 ± 0.0094 |
| AGGAGTGCCA | 1.017 ± 0.0093 |
| AGGAGTGTCA | 0.965 ± 0.013 |
| AGGAGTGTGG | 1.01 ± 0.031 |
| AGGAGTTATG | 1.015 ± 0.0046 |
| AGGATAAAGT | 0.9875 ± 0.0077 |
| AGGATAGTGT | 0.985 ± 0.036 |
| AGGATCGACG | 0.925 ± 0.013 |
| AGGATGATGC | 0.979 ± 0.026 |
| AGGATGCTCA | 1.01 ± 0.011 |
| AGGATGGTGA | 0.968 ± 0.015 |
| AGGATGGTTA | 0.968 ± 0.076 |
| AGGATGTAAA | 1.025 ± 0.0045 |

| Sequence | switch fluorescence ratio |
| --- | --- |
| AGGATTGGTT | 1 ± 0.025 |
| AGGCAAAAAT | 1.008 ± 0.004 |
| AGGCAAAGTT | 0.989 ± 0.026 |
| AGGCAACCAA | 1.02 ± 0.017 |
| AGGCACGTGT | 1.02 ± 0.015 |
| AGGCAGAATC | 1.01 ± 0.037 |
| AGGCAGCTGT | 1.01 ± 0.018 |
| AGGCAGGCCA | 1.17 ± 0.056 |
| AGGCAGGGAT | 1.01 ± 0.057 |
| AGGCAGGTAC | 1.246 ± 0.0051 |
| AGGCAGGTTG | 0.985 ± 0.019 |
| AGGCATAAGG | 0.9897 ± 0.0077 |
| AGGCATTGGC | 0.997 ± 0.048 |
| AGGCATTTTA | 0.983 ± 0.053 |
| AGGCCCGTGT | 0.98 ± 0.068 |
| AGGCCCTTTA | 1.12 ± 0.17 |
| AGGCCGGAAG | 0.9945 ± 0.0095 |
| AGGCCGTAGG | 0.937 ± 0.048 |
| AGGCCTGAAA | 0.983 ± 0.07 |
| AGGCCTGAGC | 1 ± 0.025 |
| AGGCCTTGTT | 0.974 ± 0.019 |
| AGGCGAGGAT | 1.012 ± 0.0075 |
| AGGCGATCTG | 1.01 ± 0.041 |
| AGGCGCAGGT | 1.01 ± 0.021 |
| AGGCGCCTGT | 1.02 ± 0.017 |

| Sequence | switch fluorescence ratio |
| --- | --- |
| AGGCGCTCTG | 0.99 ± 0.0045 |
| AGGCGGACGT | 1 ± 0.0089 |
| AGGCGGGGAG | 1.02 ± 0.026 |
| AGGCGGGGCG | 1.02 ± 0.022 |
| AGGCGTAAGG | 1.03 ± 0.015 |
| AGGCTCATGG | 1.028 ± 0.0089 |
| AGGCTGGGGG | 0.996 ± 0.013 |
| AGGCTGGTCT | 0.952 ± 0.1 |
| AGGCTTTCTC | 1.14 ± 0.11 |
| AGGCTTTGG | 0.999 ± 0.051 |
| AGGGAAAAAC | 2.45 ± 2 |
| AGGGAAAAAG | 1.02 ± 0.045 |
| AGGGAAAGTT | 1.01 ± 0.024 |
| AGGGAAGCT | 1.05 ± 0.015 |
| AGGGAAGGAT | 1.01 ± 0.047 |
| AGGGAAGGGG | 1.1 ± 0.17 |
| AGGGAATGTG | 0.987 ± 0.034 |
| AGGGACAGAC | 1.17 ± 0.054 |
| AGGGACGTAG | 1.05 ± 0.026 |
| AGGGACTTGG | 1 ± 0.047 |
| AGGGACTTGT | 1 ± 0.03 |
| AGGGAGAACG | 0.961 ± 0.047 |
| AGGGAGAAGT | 0.9853 ± 0.002 |
| AGGGAGGAGG | 0.971 ± 0.024 |
| AGGGAGGCCG | 0.98 ± 0.11 |

| Sequence | switch fluorescence ratio |
| --- | --- |
| AGGGAGGGAT | 1.01 ± 0.027 |
| AGGGAGGGTT | 1 ± 0.039 |
| AGGGAGTGCT | 1.02 ± 0.013 |
| AGGGAGTTAA | 0.973 ± 0.054 |
| AGGGAGTTCG | 0.977 ± 0.03 |
| AGGGATGTAA | 0.992 ± 0.012 |
| AGGGATTCCG | 1 ± 0.032 |
| AGGGATTGAT | 1.01 ± 0.059 |
| AGGGATTGC | 0.973 ± 0.027 |
| AGGGATTTAA | 0.988 ± 0.022 |
| AGGGATTTGG | 0.987 ± 0.014 |
| AGGGCAACCG | 1.04 ± 0.028 |
| AGGGCAAGGA | 1.11 ± 0.16 |
| AGGGCAGAGA | 1.02 ± 0.046 |
| AGGGCATTCG | 0.979 ± 0.026 |
| AGGGCATTGA | 1.01 ± 0.022 |
| AGGGCCCCGG | 1.03 ± 0.023 |
| AGGGCCCCTG | 0.9941 ± 0.0044 |
| AGGGCGACG | 1.05 ± 0.079 |
| AGGGCGACGC | 0.912 ± 0.025 |
| AGGGCGGGGT | 1.02 ± 0.033 |
| AGGGCGTTGT | 0.969 ± 0.035 |
| AGGGCTACAG | 1.013 ± 0.0054 |
| AGGGCTGTTC | 1.063 ± 0.0045 |
| AGGGCTTTTG | 1 ± 0.063 |

| Sequence | switch fluorescence ratio |
| --- | --- |
| AGGGGAAAAT | 0.996 ± 0.028 |
| AGGGGAAACA | 1.01 ± 0.031 |
| AGGGGAAAGA | 1.02 ± 0.04 |
| AGGGGAAGAA | 1 ± 0.019 |
| AGGGGAATTG | 0.955 ± 0.021 |
| AGGGGACGGG | 1.05 ± 0.037 |
| AGGGGAGAGT | 1 ± 0.014 |
| AGGGGAGCGT | 1.015 ± 0.0064 |
| AGGGGAGGCT | 0.997 ± 0.045 |
| AGGGGAGGGT | 1 ± 0.015 |
| AGGGGATAAG | 0.992 ± 0.029 |
| AGGGGATCAT | 0.981 ± 0.029 |
| AGGGGATTAT | 0.998 ± 0.038 |
| AGGGGCACAA | 1.01 ± 0.024 |
| AGGGGCAGGG | 0.932 ± 0.081 |
| AGGGGCAGTA | 0.993 ± 0.032 |
| AGGGGCGTAC | 1.07 ± 0.022 |
| AGGGGCTATT | 1.01 ± 0.014 |
| AGGGGGACAC | 1 ± 0.028 |
| AGGGGGAGTT | 0.979 ± 0.025 |
| AGGGGGATAG | 0.967 ± 0.052 |
| AGGGGGATCT | 1.03 ± 0.04 |
| AGGGGGATTT | 0.999 ± 0.052 |
| AGGGGGCAGG | 1.01 ± 0.017 |
| AGGGGGCCTG | 0.992 ± 0.01 |
